In paper PMC4538832, “Structures of the T. brucei kRNA editing factor MRB1590 reveal unique RNA-binding pore motif contained within an ABC-ATPase fold” (Nucleic Acids Research, 2015):

Target: the molecule itself
Test: SEC; Superdex 200; 5 mg/ml protein; 20 mM Tris-HCl pH 7.5, 300 mM NaCl, 5% glycerol; elution volume compared with standard proteins

B1: MRB1590(10–668) (domain or fragment, T. brucei, UniProt Q57ZF2 10-668, looked up)
chain: YRGGRGGGRGHSHWHNNAPMERGGHMPSNNEGAAISSGSTGFSPLMDFFHSVEGRNYGELRSLTNETYQISENVRCTFLSIQSDPFAPGSQVRLVCPCTFSLEKVLQTTDLAAANPCRRVAAEDFILRSFHAGYRNGIPRRTSGAVQVLRPSQHVLERSTVGLVKAHQQKSGMQAEIEIFARVKLPGHGRRIDGHGAIDIFYNELVPLLEQCVVGLNEEDLHQHVICVHDQEVLRSNLLGAGYVAFVANGAILPRDAGNSDKPLRDNAVPFQSPKSLECSFTLPHSGKTITGMGLPPGLTLIAGGGFHGKSTLLRALEVGIYNHVPDDGRTYVVVDPTAVKIRAEDRRSVHGVDISPFINNLPFGKTTNFFVTADASGSTSQAANIMEALELGSQLLLLDEDTCATNLMYRDALMQMLVPRAQEPITPFVERVADLSQNHGVSSIMVIGGSGQYFPQARVVLVMNAYQISDCTKEAKEIASNSSLPALNPPGDTASVFIPDVNRCFDPDGSFTTVRRRRGREGTKVSGIGTESIRFSEETIDLSMVEQIVEEGQVNAIAQCLALLYDGEPRIVPEMTTKGGALTQLPSPGGVCEIQRGKFNSNFSSMIAGCCSHQHDKRLELRTPSCYLPRGFTSATRHIEIGAALNRLRTLRTVTAKR
notes: MRB1590, Trypanosoma brucei, residues 10-668 (N-terminal truncation of the full length protein); also called MRB1590–AMP–PNP complex; MRB1590-ADP, crystal form 2 (with poly-U); source: E. coli C41(DE3), purified (nickel-nitrilotriacetic acid column)
stoichiometry N: 2
